Measurements taken from patent EP4714976A1 (Sunshine Lake Pharma Co., Ltd., dated 2026).
Like-named read-outs stand apart in the source and are kept apart here.

Legend:
[1] = target: T1, human FGFR2b (Kaixia Biotechnology, catalog number FGR-HM1BB) (human, UniProt P21802-3 22-378); experiment: BLI, antibody on AHC2 sensor
T1 construct: extracellular domain; bought; also called hFGFR2b; human FGFR2b protein

[2] = target: T2, recombinant cynomolgus monkey FGFR2b (cynomolgus monkey); experiment: ELISA, antibody 1ug/mL
T2 construct: extracellular domain; bought; also called cynomolgus macaque FGFR2b

[3] = target: T3, FGFR2b on KATO III cells (human, UniProt P21802-3 22-822); experiment: flow cytometry, KATO III cells
T3 construct: whole, on cells; also called KATO III cells that overexpress FGFR2b

[4] = target: T1, human FGFR2b (Kaixia Biotechnology, …); experiment: ELISA, FGFR2b coated at 1 µg/ml
[5] = target: T1, human FGFR2b (Kaixia Biotechnology, …); experiment: BLI, antibody on AHC2 sensor; remark: listed apart in the source
[6] = target: T3, FGFR2b on KATO III cells; experiment: flow cytometry, KATO III cells; remark: listed apart in the source

T1 sequence (P21802 other isoform, or with tags, fused parts or gaps): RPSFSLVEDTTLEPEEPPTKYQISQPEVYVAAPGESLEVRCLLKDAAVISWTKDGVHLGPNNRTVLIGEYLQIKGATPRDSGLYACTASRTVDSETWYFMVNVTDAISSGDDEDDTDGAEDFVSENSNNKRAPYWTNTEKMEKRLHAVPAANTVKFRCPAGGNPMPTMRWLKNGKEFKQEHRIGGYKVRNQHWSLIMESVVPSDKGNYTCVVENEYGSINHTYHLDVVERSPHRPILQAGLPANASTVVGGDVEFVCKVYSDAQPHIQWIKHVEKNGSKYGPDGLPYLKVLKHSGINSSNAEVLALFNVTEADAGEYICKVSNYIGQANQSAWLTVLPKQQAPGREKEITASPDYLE
T3 sequence (P21802 other isoform, or with tags, fused parts or gaps): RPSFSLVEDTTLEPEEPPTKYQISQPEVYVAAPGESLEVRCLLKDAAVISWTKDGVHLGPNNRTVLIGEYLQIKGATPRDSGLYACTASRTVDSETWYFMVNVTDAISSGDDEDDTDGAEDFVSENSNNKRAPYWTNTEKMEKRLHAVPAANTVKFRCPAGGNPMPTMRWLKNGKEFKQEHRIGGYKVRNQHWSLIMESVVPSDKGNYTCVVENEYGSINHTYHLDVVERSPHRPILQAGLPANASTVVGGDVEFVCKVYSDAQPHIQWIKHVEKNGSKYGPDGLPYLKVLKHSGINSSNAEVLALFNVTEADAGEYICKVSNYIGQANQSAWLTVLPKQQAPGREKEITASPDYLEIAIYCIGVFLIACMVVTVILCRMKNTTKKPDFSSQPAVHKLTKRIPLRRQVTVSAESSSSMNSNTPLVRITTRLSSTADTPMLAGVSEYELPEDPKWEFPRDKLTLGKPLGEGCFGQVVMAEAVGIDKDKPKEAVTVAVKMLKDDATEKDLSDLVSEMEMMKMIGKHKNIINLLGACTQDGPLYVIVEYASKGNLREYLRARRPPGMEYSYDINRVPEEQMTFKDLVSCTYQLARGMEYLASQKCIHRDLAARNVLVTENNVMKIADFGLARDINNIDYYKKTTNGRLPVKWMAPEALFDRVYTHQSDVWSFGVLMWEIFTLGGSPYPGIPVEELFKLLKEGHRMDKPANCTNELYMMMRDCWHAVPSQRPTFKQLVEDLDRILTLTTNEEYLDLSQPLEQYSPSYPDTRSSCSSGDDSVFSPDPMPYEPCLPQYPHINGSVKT

Binder | Kd [1] [nM] | koff [1] [s⁻¹] | kon [1] [M⁻¹ s⁻¹] | OD (450 nm) value [2] | EC50 [3] [µg/mL] | EC50 [4] [µg/mL] | Kd [5] [nM] | koff [5] [s⁻¹] | kon [5] [M⁻¹ s⁻¹] | EC50 [6] [µg/mL]
3E3 scFv-Fc (Fc fusion, scFv-Fc dimer) QVQLQQPGAVLVKPGASVRMSCKASGYTFPYYNVHWVKRTPGQGLEWIGLIYPDNGDTSYNQKFTGKATLTADTSSSTAYMQLSSLTSEDSAVYYCARGGLDYWGQGTTLTVSAGGGGSGGGGSGGGGSDVQITQSPASLSASVGETVTITCGASENIYGALNWYQRKQGKSPQLLIYGATNLADGMSSRFSGSGSGRQYSLKISSLHPDDVATYYCQNVLSTPYTFGGGTKLEIKESKYGPPCPPCPAPEAAGGPSVFLFPPKPKDTLMISRTPEVTCVVVDVSQEDPEVQFNWYVDGVEVHNAKTKPREEQFNSTYRVVSVLTVLHQDWLNGKEYKCKVSNKGLPSSIEKTISKAKGQPREPQVYTLPPSQEEMTKNQVSLTCLVKGFYPSDIAVEWESNGQPENNYKTTPPVLDSDGSFFLYSKLTVDKSRWQEGNVFSCSVMHEALHNHYTQKSLSLSLG | 8.18 | 0.00184 | 225000 | 3.09 | 0.376 | 0.0273 |  |  |  | 
3C7-VH0-VL3 (antibody, human IgG1, kappa, V domains shown, humanized IgG1) VH: QVQLVQSGAEVKKPGASVKVSCKASGYTFTNYYIHWVRQAPGQGLEWMGAIYPDNGDTSYNQRFKVRATLTADTSTSTVYMELSSLRSEDTAVYYCARAFTYWGQGTTVTVSS VL: DIQMTQSPSSLSASVGDRVTITCGASENIYGALNWYQRKPGKSPKLLIYGATNLADGVPSRFSGSGSGTDYTLTISSLQPEDVATYYCQNVLSTPYTFGGGTKLEIKR |  |  |  |  |  |  | 13.6 | 0.00323 | 238000 | 0.443
3C7-VH3-VL2 (antibody, human IgG1, kappa, V domains shown, humanized IgG1) VH: QVQLVQSGAEVKKPGASVKVSCKASGYIFRNYYIHWVKQAPGQGLEWMGAIYPDNGDTSYNQRFKVRATLTADTSTSTVYMELSSLRSEDTAVYYCARAFTYWGQGTTVTVSS VL: DIQMTQSPSSLSASVGDRVTITCGASENIYGALNWYQRKPGKAPKLLIYGATNLADGVPSRFSGSGSGTDYTLTISSLQPEDFATYYCQNVLSTPYTFGGGTKLEIKR |  |  |  |  |  |  | 2.48 | 0.000829 | 334000 | 0.523
3C7-VH2-VL3 (antibody, human IgG1, kappa, V domains shown, humanized IgG1) VH: QVQLVQSGAEVKKPGASVKVSCKASGYIFRNYYIHWVRQAPGQGLEWMGAIYPDNGDTSYNQRFKVRATLTADTSTSTVYMELSSLRSEDTAVYYCARAFTYWGQGTTVTVSS VL: DIQMTQSPSSLSASVGDRVTITCGASENIYGALNWYQRKPGKSPKLLIYGATNLADGVPSRFSGSGSGTDYTLTISSLQPEDVATYYCQNVLSTPYTFGGGTKLEIKR |  |  |  |  |  |  | 2.77 | 0.000754 | 272000 | 0.572
3C7-VH3-VL3 (antibody, human IgG1, kappa, V domains shown, humanized IgG1) VH: QVQLVQSGAEVKKPGASVKVSCKASGYIFRNYYIHWVKQAPGQGLEWMGAIYPDNGDTSYNQRFKVRATLTADTSTSTVYMELSSLRSEDTAVYYCARAFTYWGQGTTVTVSS VL: DIQMTQSPSSLSASVGDRVTITCGASENIYGALNWYQRKPGKSPKLLIYGATNLADGVPSRFSGSGSGTDYTLTISSLQPEDVATYYCQNVLSTPYTFGGGTKLEIKR |  |  |  |  |  |  | 2.43 | 0.000777 | 320000 | 0.536
3C7-VH3-VL1 (antibody, human IgG1, kappa, V domains shown, humanized IgG1) VH: QVQLVQSGAEVKKPGASVKVSCKASGYIFRNYYIHWVKQAPGQGLEWMGAIYPDNGDTSYNQRFKVRATLTADTSTSTVYMELSSLRSEDTAVYYCARAFTYWGQGTTVTVSS VL: DIQMTQSPSSLSASVGDRVTITCGASENIYGALNWYQQKPGKAPKLLIYGATNLADGVPSRFSGSGSGTDYTLTISSLQPEDVATYYCQNVLSTPYTFGGGTKVEIKR |  |  |  |  |  |  | 2.46 | 0.00106 | 429000 | 0.446
3C7-VH2-VL0 (antibody, human IgG1, kappa, V domains shown, humanized IgG1) VH: QVQLVQSGAEVKKPGASVKVSCKASGYIFRNYYIHWVRQAPGQGLEWMGAIYPDNGDTSYNQRFKVRATLTADTSTSTVYMELSSLRSEDTAVYYCARAFTYWGQGTTVTVSS VL: DIQMTQSPSSLSASVGDRVTITCRASENIYGALNWYQQKPGKAPKLLIYGATNLADGVPSRFSGSGSGTDFTLTISSLQPEDFATYYCQNVLSTPYTFGGGTKVEIKR |  |  |  |  |  |  | 1.63 | 0.000829 | 509000 | 0.436
3C7-VH1-VL1 (antibody, human IgG1, kappa, V domains shown, humanized IgG1) VH: QVQLVQSGAEVKKPGASVKVSCKASGYIFTNYYIHWVRQAPGQGLEWMGAIYPDNGDTSYNQRFKVRATLTADTSTSTVYMELSSLRSEDTAVYYCARAFTYWGQGTTVTVSS VL: DIQMTQSPSSLSASVGDRVTITCGASENIYGALNWYQQKPGKAPKLLIYGATNLADGVPSRFSGSGSGTDYTLTISSLQPEDVATYYCQNVLSTPYTFGGGTKVEIKR |  |  |  |  |  |  | 3.24 | 0.00131 | 405000 | 0.506
3C7-VH3-VL0 (antibody, human IgG1, kappa, V domains shown, humanized IgG1) VH: QVQLVQSGAEVKKPGASVKVSCKASGYIFRNYYIHWVKQAPGQGLEWMGAIYPDNGDTSYNQRFKVRATLTADTSTSTVYMELSSLRSEDTAVYYCARAFTYWGQGTTVTVSS VL: DIQMTQSPSSLSASVGDRVTITCRASENIYGALNWYQQKPGKAPKLLIYGATNLADGVPSRFSGSGSGTDFTLTISSLQPEDFATYYCQNVLSTPYTFGGGTKVEIKR |  |  |  |  |  |  | 2.51 | 0.000831 | 331000 | 0.624
3C7-VH1-VL0 (antibody, human IgG1, kappa, V domains shown, humanized IgG1) VH: QVQLVQSGAEVKKPGASVKVSCKASGYIFTNYYIHWVRQAPGQGLEWMGAIYPDNGDTSYNQRFKVRATLTADTSTSTVYMELSSLRSEDTAVYYCARAFTYWGQGTTVTVSS VL: DIQMTQSPSSLSASVGDRVTITCRASENIYGALNWYQQKPGKAPKLLIYGATNLADGVPSRFSGSGSGTDFTLTISSLQPEDFATYYCQNVLSTPYTFGGGTKVEIKR |  |  |  |  |  |  | 1.89 | 0.000955 | 504000 | 0.396
3C7-VH1-VL3 (antibody, human IgG1, kappa, V domains shown, humanized IgG1) VH: QVQLVQSGAEVKKPGASVKVSCKASGYIFTNYYIHWVRQAPGQGLEWMGAIYPDNGDTSYNQRFKVRATLTADTSTSTVYMELSSLRSEDTAVYYCARAFTYWGQGTTVTVSS VL: DIQMTQSPSSLSASVGDRVTITCGASENIYGALNWYQRKPGKSPKLLIYGATNLADGVPSRFSGSGSGTDYTLTISSLQPEDVATYYCQNVLSTPYTFGGGTKLEIKR |  |  |  |  |  |  | 3.04 | 0.00122 | 403000 | 0.565
3C7-VH2-VL1 (antibody, human IgG1, kappa, V domains shown, humanized IgG1) VH: QVQLVQSGAEVKKPGASVKVSCKASGYIFRNYYIHWVRQAPGQGLEWMGAIYPDNGDTSYNQRFKVRATLTADTSTSTVYMELSSLRSEDTAVYYCARAFTYWGQGTTVTVSS VL: DIQMTQSPSSLSASVGDRVTITCGASENIYGALNWYQQKPGKAPKLLIYGATNLADGVPSRFSGSGSGTDYTLTISSLQPEDVATYYCQNVLSTPYTFGGGTKVEIKR |  |  |  |  |  |  | 2.92 | 0.000718 | 246000 | 0.302
3A8 scFv-Fc (Fc fusion, scFv-Fc dimer) QVQLQQSGAELVKPGASVKMSCKASGYTFTIYNIHWVRQTPGQGLEWIGLIYPDNGDTSYNQKFKAKATLTADKSSSTAYMQLSSLTSEDSAVYYCARGGFDYWGQGTSLTVSSGGGGSGGGGSGGGGSDIVMTQSQKFMSTSVGDRVSVTCKASQNVGTNVAWYQQKPGQSPKALIYSASYRYSGVPDRFTGSGSGTDFTLTISNVQAEDLADYFCQQHYSTPYTFGGGTKLEMKESKYGPPCPPCPAPEAAGGPSVFLFPPKPKDTLMISRTPEVTCVVVDVSQEDPEVQFNWYVDGVEVHNAKTKPREEQFNSTYRVVSVLTVLHQDWLNGKEYKCKVSNKGLPSSIEKTISKAKGQPREPQVYTLPPSQEEMTKNQVSLTCLVKGFYPSDIAVEWESNGQPENNYKTTPPVLDSDGSFFLYSKLTVDKSRWQEGNVFSCSVMHEALHNHYTQKSLSLSLG | 3.48 | 0.0009 | 259000 |  | 0.199 | 0.0278 |  |  |  | 
1G6 scFv-Fc (Fc fusion, scFv-Fc dimer) EIQLQQSGAELVKPGASVKMSCKASGYTFRYYNMHWVKRTPGQGLEWIGLIYPDNGDTSYNQKFKGKATLTADTSSSTAYMQLSSLTSEDSAVYYCARGGLDYWGQGTSLTVSSGGGGSGGGGSGGGGSNIVMTQSHKFMSTSVGDRVSITCKASQDVNTDVAWYQQKPGQSPKLLIYSASYRYTGVPTRFTGSGSGTDFTFTISGVQAEDLADYYCQQHYNTPYTFGGGTKLELKESKYGPPCPPCPAPEAAGGPSVFLFPPKPKDTLMISRTPEVTCVVVDVSQEDPEVQFNWYVDGVEVHNAKTKPREEQFNSTYRVVSVLTVLHQDWLNGKEYKCKVSNKGLPSSIEKTISKAKGQPREPQVYTLPPSQEEMTKNQVSLTCLVKGFYPSDIAVEWESNGQPENNYKTTPPVLDSDGSFFLYSKLTVDKSRWQEGNVFSCSVMHEALHNHYTQKSLSLSLG | 3.97 | 0.00149 | 374000 | 3.24 | 0.186 | 0.0235 |  |  |  | 
